Assay results: the supplement of paper PMC10126150
± gives the standard deviation of the averaged measurements.

Tested on: ATP
Assay: switch fluorescence ratio, 500 uM ATP over buffer (Cy3 cluster intensity, sum of 5 cycles each) (fold (ratio)); higher = stronger signal-on switching upon ATP binding; sequences stand for … in TCGTCGGCAGCGTCAGATGTGTATAAGAGACAGTTTTTTTTTTTTTTTTTTTTTTTTT…TC
Conditions: aptamer strand: ATP DNA aptamer (quencher-CACCTGGGGGAGTATTGCGGAGGAAGG + anchor), 100 nM annealed; ATP concentration: 500 uM
In short: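 Values give the fluorescence ratio for each switch-domain sequence, averaged from per-cluster ratios of summed target-cycle to summed buffer-cycle Cy3 intensity. The Cy3-labelled switching-strand clusters sat on a modified Illumina MiSeq flow-cell, were annealed to 100 nM quencher-labelled ATP aptamer, and were imaged in selection buffer, then after 15 min with 500 uM ATP at 22 °C. Five cycles ran with NaOH stripping and re-annealing between them, and clusters outside 100-1000 RFU were excluded.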
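Further: ATP exposure 15 min at 22 °C before imaging.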

**Q.** With GGGTACGTTC as the sequence, how does the switch fluorescence ratio read?
**A.** 1.01 ± 0.023

**Q.** Which switch fluorescence ratio does the source give for GGGAATACTA here?
**A.** 1.38 ± 0.37

**Q.** Which switch fluorescence ratio does the source give for TGAGGTAACG here?
**A.** 0.992 ± 0.029

**Q.** TGAATGTGGT was tested. Which switch fluorescence ratio did it give?
**A.** 0.97 ± 0.014

**Q.** With TTGCGGTAGC as the sequence, how does the switch fluorescence ratio read?
**A.** 1 ± 0.016

**Q.** Which switch fluorescence ratio does the source give for ATTGTAATTG here?
**A.** 0.993 ± 0.012

**Q.** For TCTGTTCA, which switch fluorescence ratio is on record?
**A.** 1.005 ± 0.0075

**Q.** For TTCGGGGTCC, which switch fluorescence ratio is on record?
**A.** 0.99 ± 0.028

**Q.** How did the switch fluorescence ratio turn out when TTTGATAGT was run?
**A.** 1 ± 0.021

**Q.** For GGGTCGCCAT, which switch fluorescence ratio is on record?
**A.** 1 ± 0.028

**Q.** TCTATGAGGG was tested. Which switch fluorescence ratio did it give?
**A.** 1.01 ± 0.023

**Q.** How did the switch fluorescence ratio turn out when TTATCGGTTG was run?
**A.** 1.03 ± 0.043

**Q.** For ATACGTGGGA, which switch fluorescence ratio is on record?
**A.** 1.01 ± 0.032

**Q.** With TAAAATGGGT as the sequence, how does the switch fluorescence ratio read?
**A.** 0.996 ± 0.03

**Q.** For TTTAGGCAAA, which switch fluorescence ratio is on record?
**A.** 1.05 ± 0.12

**Q.** How did the switch fluorescence ratio turn out when ACAGTTCTTG was run?
**A.** 0.997 ± 0.023

**Q.** TGACTTCGCT was tested. Which switch fluorescence ratio did it give?
**A.** 1.2 ± 0.18

**Q.** For TGCGTCTGAT, which switch fluorescence ratio is on record?
**A.** 1.001 ± 0.0082

**Q.** TGCCCGGGGT was tested. Which switch fluorescence ratio did it give?
**A.** 1.05 ± 0.036

**Q.** With GAGTGCGGTT as the sequence, how does the switch fluorescence ratio read?
**A.** 0.99 ± 0.057

**Q.** GTGTCTGGGA was tested. Which switch fluorescence ratio did it give?
**A.** 0.985 ± 0.024

**Q.** CATAAAGGAT was tested. Which switch fluorescence ratio did it give?
**A.** 0.97 ± 0.011

**Q.** TTTTGCGATT was tested. Which switch fluorescence ratio did it give?
**A.** 1.015 ± 0.0065

**Q.** Which switch fluorescence ratio does the source give for AAAATTATGG here?
**A.** 0.968 ± 0.02

**Q.** How did the switch fluorescence ratio turn out when TCAGGGGGGC was run?
**A.** 1.28 ± 0.62

**Q.** How did the switch fluorescence ratio turn out when GAAAGGGGGG was run?
**A.** 1.04 ± 0.098

**Q.** AATGGATTTG was tested. Which switch fluorescence ratio did it give?
**A.** 0.995 ± 0.013

**Q.** ATCATGCGGG was tested. Which switch fluorescence ratio did it give?
**A.** 0.99749 ± 7e-05

**Q.** Which switch fluorescence ratio does the source give for TGTTTTATCT here?
**A.** 0.9857 ± 0.0073

**Q.** How did the switch fluorescence ratio turn out when AAATGCCGTT was run?
**A.** 0.982 ± 0.015

**Q.** With GTATTGGGTT as the sequence, how does the switch fluorescence ratio read?
**A.** 1 ± 0.056

**Q.** For TTTGAAGTCA, which switch fluorescence ratio is on record?
**A.** 1 ± 0.022

**Q.** How did the switch fluorescence ratio turn out when CTTGCTGTTG was run?
**A.** 1.0031 ± 0.00076

**Q.** For AAATGACGTC, which switch fluorescence ratio is on record?
**A.** 1.01 ± 0.023

**Q.** Which switch fluorescence ratio does the source give for TCAGGTGCGG here?
**A.** 1.16 ± 0.061

**Q.** With GTCAAATATG as the sequence, how does the switch fluorescence ratio read?
**A.** 0.9678 ± 0.0028

**Q.** Which switch fluorescence ratio does the source give for AAGGCTGCGA here?
**A.** 1.018 ± 0.0076

**Q.** AGGTAAATGG was tested. Which switch fluorescence ratio did it give?
**A.** 1.02 ± 0.026

**Q.** With AATATGGGTG as the sequence, how does the switch fluorescence ratio read?
**A.** 1.08 ± 0.01

**Q.** With GGCTTAATGG as the sequence, how does the switch fluorescence ratio read?
**A.** 1.01 ± 0.023

**Q.** For TTCTAGTAA, which switch fluorescence ratio is on record?
**A.** 0.998 ± 0.021

**Q.** How did the switch fluorescence ratio turn out when TGTGATGCTG was run?
**A.** 1.02 ± 0.044

**Q.** Which switch fluorescence ratio does the source give for CCGGTGCGTG here?
**A.** 1.13 ± 0.14

**Q.** How did the switch fluorescence ratio turn out when CTGTTCGCCA was run?
**A.** 1.07 ± 0.077

**Q.** With CACTAGATGG as the sequence, how does the switch fluorescence ratio read?
**A.** 0.992 ± 0.02

**Q.** For GGGGTCGTCT, which switch fluorescence ratio is on record?
**A.** 1.02 ± 0.015

**Q.** Which switch fluorescence ratio does the source give for CGGGTTGTGG here?
**A.** 1.02 ± 0.062

**Q.** How did the switch fluorescence ratio turn out when CGGAGCGACG was run?
**A.** 1.03 ± 0.015

**Q.** TAAAGGTCTT was tested. Which switch fluorescence ratio did it give?
**A.** 1.01 ± 0.016

**Q.** With AATATAGGGT as the sequence, how does the switch fluorescence ratio read?
**A.** 0.997 ± 0.028

**Q.** ATATAATGAT was tested. Which switch fluorescence ratio did it give?
**A.** 1.02 ± 0.02

**Q.** TACTCGTGGT was tested. Which switch fluorescence ratio did it give?
**A.** 1 ± 0.064

**Q.** With TTCACAACCT as the sequence, how does the switch fluorescence ratio read?
**A.** 1.77 ± 0.36

**Q.** With GATGTCAGGT as the sequence, how does the switch fluorescence ratio read?
**A.** 1.03 ± 0.044

**Q.** GGGGACGAAT was tested. Which switch fluorescence ratio did it give?
**A.** 1.002 ± 0.0025

**Q.** For ATCAAATATG, which switch fluorescence ratio is on record?
**A.** 1.01 ± 0.008

**Q.** How did the switch fluorescence ratio turn out when ATCAAATGTA was run?
**A.** 0.981 ± 0.024

**Q.** Which switch fluorescence ratio does the source give for GCCTGTGGGA here?
**A.** 1.01 ± 0.035

**Q.** Which switch fluorescence ratio does the source give for AATGGGATTC here?
**A.** 0.9881 ± 0.009

**Q.** For GGTGGGGCCC, which switch fluorescence ratio is on record?
**A.** 0.983 ± 0.032

**Q.** How did the switch fluorescence ratio turn out when GGTGACTTGG was run?
**A.** 1.01 ± 0.055

**Q.** For AATCGTTGAA, which switch fluorescence ratio is on record?
**A.** 1.01 ± 0.017

**Q.** For CAGGCTGACC, which switch fluorescence ratio is on record?
**A.** 0.974 ± 0.025

**Q.** For ACGCTACATT, which switch fluorescence ratio is on record?
**A.** 1.39 ± 0.031

**Q.** How did the switch fluorescence ratio turn out when ATTGTTAAGC was run?
**A.** 1.02 ± 0.075

**Q.** With TTAACGCGGA as the sequence, how does the switch fluorescence ratio read?
**A.** 1.03 ± 0.011

**Q.** TCAGAGGCTT was tested. Which switch fluorescence ratio did it give?
**A.** 0.996 ± 0.04

**Q.** With CCAGACGGGC as the sequence, how does the switch fluorescence ratio read?
**A.** 1.07 ± 0.059

**Q.** For TTGTTTGCCT, which switch fluorescence ratio is on record?
**A.** 1.04 ± 0.037

**Q.** With TCAATTATAC as the sequence, how does the switch fluorescence ratio read?
**A.** 1.94 ± 0.41

**Q.** Which switch fluorescence ratio does the source give for GGGGTAAATT here?
**A.** 1 ± 0.039

**Q.** For CGGCTAGTGC, which switch fluorescence ratio is on record?
**A.** 1.05 ± 0.042

**Q.** With ATATGTATCA as the sequence, how does the switch fluorescence ratio read?
**A.** 1.06 ± 0.033

**Q.** For GCGTGAGGGG, which switch fluorescence ratio is on record?
**A.** 1.03 ± 0.05

**Q.** GTCCGCCTTG was tested. Which switch fluorescence ratio did it give?
**A.** 1.07 ± 0.011

**Q.** AACAACCGGT was tested. Which switch fluorescence ratio did it give?
**A.** 0.961 ± 0.031

**Q.** For AATTGTCATT, which switch fluorescence ratio is on record?
**A.** 1.01 ± 0.019

**Q.** With TGTGGGCAAT as the sequence, how does the switch fluorescence ratio read?
**A.** 1.56 ± 0.77

**Q.** With CGTTTATTCA as the sequence, how does the switch fluorescence ratio read?
**A.** 1.036 ± 0.0079

**Q.** TTGGCATTTG was tested. Which switch fluorescence ratio did it give?
**A.** 1.02 ± 0.064

**Q.** CTGACGGATT was tested. Which switch fluorescence ratio did it give?
**A.** 1.2 ± 0.054

**Q.** ACGGTGAGGG was tested. Which switch fluorescence ratio did it give?
**A.** 1.02 ± 0.026

**Q.** CTTTTAGAAC was tested. Which switch fluorescence ratio did it give?
**A.** 0.986 ± 0.027

**Q.** TTGGGAACAT was tested. Which switch fluorescence ratio did it give?
**A.** 1 ± 0.016

**Q.** Which switch fluorescence ratio does the source give for CTGGTGTAGT here?
**A.** 1.03 ± 0.047

**Q.** TTTGTCAGAC was tested. Which switch fluorescence ratio did it give?
**A.** 1.03 ± 0.054

**Q.** How did the switch fluorescence ratio turn out when ATTCATCATT was run?
**A.** 1.003 ± 0.0043

**Q.** For CTGTTGTCGG, which switch fluorescence ratio is on record?
**A.** 0.989 ± 0.038

**Q.** CTTTGTAGTA was tested. Which switch fluorescence ratio did it give?
**A.** 0.977 ± 0.034

**Q.** For TTGATTGTTT, which switch fluorescence ratio is on record?
**A.** 0.987 ± 0.016

**Q.** For GGCCCGCGTT, which switch fluorescence ratio is on record?
**A.** 1.11 ± 0.065

**Q.** Which switch fluorescence ratio does the source give for ACCGGACATG here?
**A.** 1.07 ± 0.034

**Q.** Which switch fluorescence ratio does the source give for GTGGTAGAGC here?
**A.** 0.991 ± 0.033

**Q.** How did the switch fluorescence ratio turn out when ATGCTCGCGG was run?
**A.** 0.983 ± 0.038

**Q.** TGAGGTAGGA was tested. Which switch fluorescence ratio did it give?
**A.** 0.9781 ± 0.0014

**Q.** For CCGTATAATG, which switch fluorescence ratio is on record?
**A.** 0.98 ± 0.034

**Q.** For AGTAGCAAGC, which switch fluorescence ratio is on record?
**A.** 3.3 ± 0.17

**Q.** For GAGGGCGGCG, which switch fluorescence ratio is on record?
**A.** 1.01 ± 0.11

**Q.** Which switch fluorescence ratio does the source give for TAATTAATAT here?
**A.** 1 ± 0.048

**Q.** How did the switch fluorescence ratio turn out when TTAAACGTTT was run?
**A.** 1.02 ± 0.021
